Test results published in the supplement of paper PMC10567573.

B1: FCHO1 (parent)
chain: FSDPSQSDPETKDFWLNMAALTEA
B2: EPB41L3 (parent)
chain: SDYISEFRFAPNHTKELEDKVIEL

Variants of: B1
Experiment: protein stability index of a GFP-peptide fusion (GPS, HEK-293T) (PSI 1-6); higher = more stable
Settings: c terminus: a fixed tail appended
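Also: lentivirally expressed fusions sorted by FACS into six bins by GFP to DsRed ratio, PSI derived from sequencing read proportions per bin multiplied by bin number.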

Variant | protein stability index
N17P | 1.94
N17Q | 3.39
N17F | 1.82
N17T | 3.03
N17W | 2.49
N17M | 2.73
N17K | 2.91
N17S | 2.49
N17E | 3.49
N17L | 2.43
N17V | 1.88
N17Y | 2.8
N17I | 1.98
N17A | 2.56
N17R | 3.06
N17G | 2.67
N17C | 2.41
N17D | 1.85
N17H | 2.74
A20S | 2.94
A20H | 2.82
A20C | 2.34
A20F | 2.24
A20T | 2.71

Variant | protein stability index
A20N | 2.86
A20G | 2.65
A20E | 3.61
A20Y | 2.44
A20I | 2.38
A20R | 2.81
A20M | 2.85
A20L | 2.31
A20W | 2.16
A20P | 2.96
A20V | 2.19
A20D | 3.25
A20K | 2.63
A20Q | 2.63
A24L | 2.67
A24F | 2.56
A24V | 1.82
A24N | 3.23
A24I | 1.92
A24H | 2.89
A24D | 2.8
A24E | 3.3
A24G | 2.5
A24Q | 3.27

Variant | protein stability index
A24Y | 2.29
A24K | 3.38
A24P | 2.06
A24C | 2.36
A24S | 3.4
A24W | 2.8
A24R | 3.38
A24M | 2.62
A24T | 2.52
L21G | 2.52
L21N | 2.88
L21S | 2.62
L21M | 2.77
L21I | 3
L21A | 2.63
L21H | 2.55
L21P | 2.32
L21R | 2.95
L21K | 2.95
L21Y | 2.38
L21F | 2.1
L21Q | 3.3
L21E | 3.9
L21C | 2.4

Variant | protein stability index
L21T | 2.75
L21D | 3.27
L21V | 2.58
L21W | 1.73
A19M | 2.54
A19L | 2.44
A19S | 2.29
A19N | 2.41
A19P | 2.7
A19H | 1.96
A19Y | 2.7
A19W | 2.09
A19E | 2.74
A19D | 2.53
A19K | 2.78
A19Q | 3.02
A19I | 2.47
A19V | 2.25
A19C | 2.23
A19T | 1.79
A19G | 2.01
A19F | 2.18
A19R | 3.21
M18P | 3.53

Variant | protein stability index
M18Q | 3.77
M18S | 3.12
M18N | 3.55
M18R | 3.11
M18V | 2.56
M18A | 3.02
M18W | 3.18
M18D | 4.25
M18I | 2.37
M18L | 2.57
M18Y | 3.59
M18C | 2.78
M18G | 3.27
M18H | 3.22
M18E | 3.98
M18F | 2.78
M18T | 2.62
M18K | 2.91
E23R | 3.31
E23V | 2.24
E23H | 2.17
E23Y | 2.1
E23M | 2.08
E23N | 2.58

Variant | protein stability index
E23W | 2.04
E23K | 2.3
E23F | 1.59
E23G | 2.61
E23T | 2.79
E23S | 2.23
E23Q | 2.86
E23C | 1.63
E23I | 1.9
E23P | 2.33
E23A | 2.15
E23L | 2.3
E23D | 2.75
L16P | 4.08
L16K | 2.36
L16W | 2.31
L16T | 2.56
L16Y | 2.73
L16R | 2.21
L16M | 2.55
L16S | 2.32
L16Q | 3.59
L16N | 3.48
L16V | 2.22

Variant | protein stability index
T22N | 2.93
T22Q | 2.9
T22H | 3
T22W | 3.27
T22C | 3.09
T22D | 3.04
T22Y | 2.82
T22L | 2.82
T22R | 2.46
T22E | 3.66
T22M | 3.02
T22S | 2.34
T22G | 2.53
T22I | 2.86
T22F | 3.23
T22K | 2.61
T22A | 2.87
T22P | 2.34
T22V | 3.44

Variants of: B2
Experiment: as above
Settings: c terminus: a fixed tail appended

Variant | protein stability index
D2F | 2.02
D2V | 2.02
D2I | 1.9
D2N | 1.88
D2W | 1.89
D2E | 2.48
D2C | 2.46
D2S | 2.11
D2G | 1.45
D2H | 1.85
D2L | 2.18
D2K | 2.45
D2A | 2.21
D2R | 2.02
D2T | 1.95
D2M | 2.25
D2Q | 1.62
D2P | 2.29
D2Y | 1.75
S1I | 1.71
S1Y | 2.38
S1Q | 2.45
S1E | 2.15
S1V | 1.74
S1H | 2.1

Variant | protein stability index
S1A | 2.38
S1C | 1.75
S1L | 2.19
S1T | 2.01
S1K | 1.72
S1M | 1.92
S1F | 1.96
S1N | 1.94
S1R | 1.85
S1W | 1.76
S1D | 2.25
S1G | 2.12
S1P | 2.71
R8I | 3.24
R8F | 2.04
R8C | 4.05
R8A | 3.7
R8E | 4.47
R8H | 4.48
R8D | 4.51
R8W | 3.17
R8V | 3.39
R8M | 3.49
R8Q | 4.1
R8K | 4.26

Variant | protein stability index
R8N | 3.94
R8L | 3.24
R8Y | 3.31
R8P | 4.4
R8S | 4.3
R8G | 4.38
R8T | 3.99
F9P | 4.76
F9R | 4.58
F9L | 4.09
F9E | 4.97
F9A | 4.79
F9S | 4.79
F9I | 3.83
F9W | 3.54
F9Y | 2.25
F9T | 4.24
F9C | 3.93
F9M | 4.03
F9K | 4.29
F9G | 4.6
F9N | 4.59
F9D | 4.97
F9V | 4.44
F9Q | 4.63

Variant | protein stability index
F9H | 4.41
E6A | 1.67
E6F | 1.52
E6T | 1.82
E6S | 2
E6R | 2.13
E6Y | 1.84
E6W | 2.23
E6Q | 2.02
E6K | 1.85
E6M | 1.92
E6H | 1.43
E6L | 1.84
E6V | 2.06
E6I | 2.12
E6P | 2.43
E6N | 1.83
E6C | 1.92
E6D | 1.93
E6G | 2.28
Y3A | 2.76
Y3M | 2.29
Y3C | 2.38
Y3T | 3.06
Y3W | 2.39

Variant | protein stability index
Y3K | 2.69
Y3D | 4.03
Y3Q | 3.28
Y3S | 3.59
Y3H | 2.91
Y3R | 2.34
Y3E | 4.43
Y3V | 1.97
Y3P | 2.4
Y3N | 3.18
Y3I | 1.86
Y3L | 2.08
Y3G | 2.94
Y3F | 1.91
I4L | 2.36
I4W | 3.03
I4S | 3.49
I4N | 4.27
I4E | 3.92
I4F | 2.77
I4G | 4.11
I4Q | 3.98
I4D | 4.2
I4K | 3.23
I4V | 3.02

Variant | protein stability index
I4H | 3.96
I4M | 3.18
I4Y | 3.65
I4R | 3.13
I4T | 2.65
I4C | 3.6
I4A | 3.63
I4P | 3.76
F7W | 2.42
F7K | 4.38
F7T | 4.57
F7M | 4
F7E | 4.96
F7S | 4.12
F7Q | 4.79
F7P | 4.75
F7H | 4.26
F7R | 4.4
F7L | 3.6
F7V | 4.46
F7A | 4.4
F7I | 3.94
F7G | 4.91
F7D | 4.89
F7N | 4.96

Variant | protein stability index
F7C | 4.2
F7Y | 3.71
S5E | 3.79
S5T | 2.18
S5R | 2.62
S5D | 3.8
S5L | 1.92
S5P | 2.24
S5Q | 2.7
S5N | 2.22
S5C | 1.97
S5M | 1.27
S5F | 1.74
S5Y | 1.66
S5I | 2.02
S5H | 2.15
S5K | 2.75
S5W | 1.82
S5V | 2.19
S5G | 1.8
S5A | 1.93
